# From the supplement of paper PMC9112550, “Optimization of the antimicrobial peptide Bac7 by deep mutational scanning” (BMC Biology, 2022)
# Tested on: Escherichia coli TOP10
# Assay: shrunken log2 fold change of peptide-encoding DNA abundance (4.5 h post-induction vs induction); higher = less antimicrobial activity (less host growth inhibition)
# Conditions: time post-induction: 4.5 h; library: site-saturation at positions 5, 18, 19, 20
# 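Also: peptides expressed intracellularly from a pBAD plasmid library in pooled LB shake-flask culture, induced with 0.3% L-arabinose, DNA abundance read by NGS, three biological replicates, DESeq2 with apeglm shrinkage.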
row,Sequence,shrunken log2 fold change
1,RRIRWRPPRLPRPRPRPWVFPRP,0.262
2,RRIRDRPPRLPRPRPRPNHNPRP,-0.539
3,RRIRMRPPRLPRPRPRPIPCPRP,0.02
4,RRIRGRPPRLPRPRPRPSMCPRP,0.37
5,RRIRVRPPRLPRPRPRPPMDPRP,-0.291
6,RRIRERPPRLPRPRPRPMCWPRP,0.451
7,RRIRLRPPRLPRPRPRPLGFPRP,0.38
8,RRIRERPPRLPRPRPRPATFPRP,-0.177
9,RRIRYRPPRLPRPRPRPQQMPRP,-0.232
10,RRIRFRPPRLPRPRPRPAHVPRP,-0.0462
11,RRIRCRPPRLPRPRPRPPCCPRP,0.021
12,RRIRDRPPRLPRPRPRPIWLPRP,0.0516
13,RRIRQRPPRLPRPRPRPKSSPRP,0.0321
14,RRIRGRPPRLPRPRPRPYLAPRP,0.398
15,RRIRIRPPRLPRPRPRPGDCPRP,-0.185
16,RRIRRRPPRLPRPRPRPDDLPRP,-0.128
17,RRIRPRPPRLPRPRPRPDMDPRP,-0.21
18,RRIRIRPPRLPRPRPRPLYTPRP,-0.723
19,RRIRFRPPRLPRPRPRPKEFPRP,-0.0812
20,RRIRLRPPRLPRPRPRPEVCPRP,-0.0515
21,RRIRWRPPRLPRPRPRPHLSPRP,-0.154
22,RRIRSRPPRLPRPRPRPPFCPRP,0.135
23,RRIRMRPPRLPRPRPRPARQPRP,0.825
24,RRIRIRPPRLPRPRPRPDFWPRP,0.0448
25,RRIRNRPPRLPRPRPRPISIPRP,0.0125

row,Sequence,shrunken log2 fold change
1,RRIRTRPPRLPRPRPRPASQPRP,0.0336
2,RRIRIRPPRLPRPRPRPLPEPRP,0.0361
3,RRIRNRPPRLPRPRPRPIDDPRP,0.00709
4,RRIRHRPPRLPRPRPRPPFTPRP,-0.176
5,RRIRERPPRLPRPRPRPGQQPRP,-0.0809
6,RRIRHRPPRLPRPRPRPNHQPRP,-1.24
7,RRIRMRPPRLPRPRPRPPRTPRP,1.46
8,RRIRGRPPRLPRPRPRPCCAPRP,1.55
9,RRIRYRPPRLPRPRPRPQDIPRP,-0.252
10,RRIRTRPPRLPRPRPRPEEHPRP,0.0062
11,RRIRDRPPRLPRPRPRPNANPRP,0.000903
12,RRIRIRPPRLPRPRPRPWRKPRP,-0.143
13,RRIRTRPPRLPRPRPRPWLLPRP,-0.186
14,RRIRGRPPRLPRPRPRPGENPRP,-0.0369
15,RRIRSRPPRLPRPRPRPGMTPRP,-0.105
16,RRIRDRPPRLPRPRPRPKYAPRP,0.0137
17,RRIRPRPPRLPRPRPRPAEEPRP,0.2
18,RRIRDRPPRLPRPRPRPNKKPRP,-0.117
19,RRIRDRPPRLPRPRPRPYRHPRP,-0.0137
20,RRIRFRPPRLPRPRPRPCWLPRP,-0.165
21,RRIRGRPPRLPRPRPRPKFLPRP,0.267
22,RRIRLRPPRLPRPRPRPYCHPRP,-0.542
23,RRIRGRPPRLPRPRPRPYTWPRP,0.0845
24,RRIRWRPPRLPRPRPRPKHLPRP,0.0564
25,RRIRSRPPRLPRPRPRPTYEPRP,-0.328

row,Sequence,shrunken log2 fold change
1,RRIRPRPPRLPRPRPRPKRGPRP,0.484
2,RRIRARPPRLPRPRPRPACRPRP,0.896
3,RRIRQRPPRLPRPRPRPNERPRP,-0.0297
4,RRIRFRPPRLPRPRPRPMYCPRP,-0.541
5,RRIRFRPPRLPRPRPRPEYFPRP,0.186
6,RRIRTRPPRLPRPRPRPHQQPRP,-0.0314
7,RRIRKRPPRLPRPRPRPLYIPRP,-0.329
8,RRIRKRPPRLPRPRPRPHSKPRP,0.0726
9,RRIRPRPPRLPRPRPRPWHCPRP,-0.0956
10,RRIRTRPPRLPRPRPRPGVVPRP,0.0177
11,RRIRHRPPRLPRPRPRPVFDPRP,-0.0994
12,RRIRGRPPRLPRPRPRPISQPRP,0.135
13,RRIRRRPPRLPRPRPRPQTAPRP,-0.11
14,RRIRDRPPRLPRPRPRPEPWPRP,0.32
15,RRIRRRPPRLPRPRPRPMIVPRP,0.00521
16,RRIRPRPPRLPRPRPRPIEDPRP,-0.0617
17,RRIRWRPPRLPRPRPRPSSWPRP,0.0927
18,RRIRPRPPRLPRPRPRPAGNPRP,0.194
19,RRIRRRPPRLPRPRPRPNSDPRP,-0.17
20,RRIRSRPPRLPRPRPRPTQIPRP,0.048
21,RRIRNRPPRLPRPRPRPGPRPRP,0.641
22,RRIRERPPRLPRPRPRPRAAPRP,0.448
23,RRIRDRPPRLPRPRPRPRVSPRP,0.223
24,RRIRGRPPRLPRPRPRPQKFPRP,-0.0494
25,RRIRARPPRLPRPRPRPMWDPRP,-0.103
